Data published in the supplement of paper PMC12764529.
± gives the half width of the 95% confidence interval.

How the values were obtained:
[1] = folding stability dG unfold from trypsin proteolysis; higher = more stable
How it was run: (§1)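 How resistant each design was to proteolysis was captured as K50, inferred by Bayesian fitting of sequencing counts. Unfolding free energy was then derived relative to a sequence-predicted unfolded-state K50 and a shared folded-state K50, per protease or combined. Digestion used trypsin and chymotrypsin at 11 threefold-diluted concentrations plus a no-protease condition, on mini-proteins under 80 residues without cysteine in a PA-tagged cDNA display construct. Designs were kept only when AlphaFold2 dimer inter-PAE was above 15.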

[2] = folding stability dG unfold from chymotrypsin proteolysis; higher = more stable
How it was run: as §1

[3] = folding stability dG unfold (combined trypsin and chymotrypsin); higher = more stable
How it was run: as §1

Sequence | folding stability dG unfold [1] [kcal/mol] | folding stability dG unfold [2] [kcal/mol] | folding stability dG unfold [3] [kcal/mol]
SAGGSAGGSAGGMKTITLTTTSPEEAEAAKEKLLKEGPNNLVITYKPPPEPYPENGPRVVSAGGSAGGSAGG [r7_261_JUSTAS] | -0.294 ± 0.25 | 0.743 ± 0.14 | 0.683 ± 0.21
SAGGSAGGSAGGMKTLTVTTESLTKEEIIEEIKAMGYPNAKVTVTPSPENPDKYIVNVIESAGGSAGGSAGG [r7_988_JUSTAS] | 0.292 ± 0.091 | 0.736 ± 0.13 | 0.404 ± 0.18
SAGGSAGGSAGGMKVKAYIFENGKLKEIELSEEELKELLKKLPNARILIEVDGKKLELPASAGGSAGGSAGG [r7_188_TrROS_Hall] | 1.93 ± 0.083 | 3.79 ± 0.12 | 3.51 ± 0.2
SAGGSAGGSAGGMKVTTINLPDGTTIEYYPETGSVTIHPSDGSVSTRPDLTLEDVLAALSAGGSAGGSAGGS [r10_569_JUSTAS] | 2.38 ± 0.066 | 1.81 ± 0.031 | 2.07 ± 0.051
SAGGSAGGSAGGMLSGQVIEVTIPPERRLVRVEKLPSGDYLITIYRPDEPKPLETLRIRASAGGSAGGSAGG [r7_620_JUSTAS] | 1.49 ± 0.034 | 1.92 ± 0.071 | 1.78 ± 0.11
SAGGSAGGSAGGMLYVKVKTEDGEELVLEVEGMTEDEIREELAKAGFKIEEIEVYEVEPSAGGSAGGSAGGS [r10_572_TrROS_Hall] | 2.36 ± 0.093 | 2.83 ± 0.018 | 2.71 ± 0.06
SAGGSAGGSAGGMPLVRIEVTNENGEKFTFIFESEEEAKAAAEALGVDVKIEKIPPGEEISAGGSAGGSAGG [r7_456_TrROS_Hall] | 2.54 ± 0.17 | 3.25 ± 0.085 | 2.92 ± 0.14
SAGGSAGGSAGGMPPATTVVEKPETSLTLEKTPTTVTIHDKATGKTSTVPAAEVDPALLSAGGSAGGSAGGS [r10_512_JUSTAS] | -0.373 ± 0.11 | 0.297 ± 0.075 | 0.138 ± 0.1
SAGGSAGGSAGGMPPFVELEFVGEFKVNGEKVLVLRLPDGSIRIVNLKTGETITVPASLLSAGGSAGGSAGG [r7_28_JUSTAS] | 2.33 ± 0.048 | 2.67 ± 0.038 | 2.57 ± 0.067
SAGGSAGGSAGGMPPGTVVRSEVVRTETFTETITLPSGETATTTVTTTTTTEVEVEQPLSAGGSAGGSAGGS [r10_297_JUSTAS] | 0.233 ± 0.079 | 0.469 ± 0.047 | 0.54 ± 0.22
SAGGSAGGSAGGMPTYEVTLEPDPTGGDVYTVTVTFPDGSTVTRNATPAELKAEGLTVKVSAGGSAGGSAGG [r7_14_JUSTAS] | 1.09 ± 0.039 | 0.88 ± 0.044 | 0.967 ± 0.072
SAGGSAGGSAGGMPVEVTTLETRKDPAGTTTEITLDPKTGRTIIVTKYPNGGSETTVVESAGGSAGGSAGGS [r10_1118_JUSTAS] | 0.788 ± 0.069 | 0.504 ± 0.065 | 0.622 ± 0.17
SAGGSAGGSAGGMRIRLENGEVIKIKNAKTKEELLNALKAIPGLKIEYDEETKELWIYRSAGGSAGGSAGGS [r10_792_TrROS_Hall] | 1.88 ± 0.075 | 2.33 ± 0.097 | 2.22 ± 0.16
SAGGSAGGSAGGMSLSTSVESLTVFDSSGNVLEERTITVEKTVPLFGKPVYVYPTPSNTLSAGGSAGGSAGG [r17_325_JUSTAS] | 0.136 ± 0.1 | 0.248 ± 0.11 | 0.265 ± 0.12
SAGGSAGGSAGGMSPGSSSTTVTTTTSPNGTVVTTTTTTTLDPNSNTTSSTTTTTTTTTSAGGSAGGSAGGS [r10_1164_JUSTAS] | 3.15 ± 0.25 | 1.74 ± 0.18 | 2.42 ± 0.25
SAGGSAGGSAGGMSSTVSLSTSFLPNGEKVVTTTTTFTDSSTTTTTTTTTTVALPPPSVVSAGGSAGGSAGG [r7_495_JUSTAS] | 1.14 ± 0.075 | 0.984 ± 0.093 | 1.23 ± 0.14
SAGGSAGGSAGGMSVTVSREKLPDGSYLVTVTTEVGGGPVTTPYRVPPSLSSAEEVVEKLSAGGSAGGSAGG [r7_75_JUSTAS] | -0.0439 ± 0.14 | -0.659 ± 0.51 | -0.23 ± 0.2
SAGGSAGGSAGGMTAIIVESEEEAKKIAEEKGIKDVKFIPKGKPELLKPDVDKVIKINKKSAGGSAGGSAGG [r7_381_JUSTAS] | -0.282 ± 0.22 | 0.348 ± 0.075 | 0.102 ± 0.33
SAGGSAGGSAGGMTAKEIAEKLGLPPGAKVVKIEYDKETNTFYIVIEVDGELKTYRIDVSAGGSAGGSAGGS [r10_17_TrROS_Hall] | 4.2 ± 0.14 | 4.765 ± 0.037 | 4.69 ± 0.087
SAGGSAGGSAGGMTITIKVPPNMTEEQLRELARELARKLGLEDVEVRIERREDGTVRITFSAGGSAGGSAGG [r7_810_TrROS_Hall] | 4.91 ± 0.2 | 4.83 ± 0.12 | 4.85 ± 0.15
SAGGSAGGSAGGMTITLVDPENGVKEAEIEEVDGKLRITVVNEETGEKEEIELPLEELLSAGGSAGGSAGGS [r10_772_TrROS_Hall] | 0.648 ± 0.063 | 0.288 ± 0.14 | 0.477 ± 0.16

Sequence | folding stability dG unfold [1] [kcal/mol] | folding stability dG unfold [2] [kcal/mol] | folding stability dG unfold [3] [kcal/mol]
SAGGSAGGSAGGMTITVNGPTATITYPDGSVETIPLTSPEEFEALKAAHPDVEATPASPSAGGSAGGSAGGS [r10_1211_JUSTAS] | 0.353 ± 0.047 | 1.21 ± 0.014 | 0.967 ± 0.093
SAGGSAGGSAGGMTIVIVVPAENLTPEEIAELLREAGYEVTVERREDGYLVVTVRLPEPSAGGSAGGSAGGS [r10_1254_TrROS_Hall] | 3.5 ± 0.083 | 3.08 ± 0.052 | 3.43 ± 0.048
SAGGSAGGSAGGMTKLEPLATEPNPLKVLTKVTTTDPVTGKPKTTIVETEIPVPESELGSAGGSAGGSAGGS [r10_846_JUSTAS] | 0.0416 ± 0.06 | -0.0657 ± 0.13 | 0.0083 ± 0.12
SAGGSAGGSAGGMTLEELKKAIENAKPGETIEIEINGETYRITIIEKDGKLIIKIEKLPPSAGGSAGGSAGG [r7_448_TrROS_Hall] | 4.36 ± 0.36 | 4.21 ± 0.25 | 4.19 ± 0.24
SAGGSAGGSAGGMTLVIVVETEEQAEALAEELKKKGFEVTVERDEETNLLVVTVKVKPPPSAGGSAGGSAGG [r7_623_TrROS_Hall] | 4.04 ± 0.25 | 3.36 ± 0.11 | 3.66 ± 0.12
SAGGSAGGSAGGMTPEEIEAALQKAREENSEDEEFTVTVTDPETGEVLTIRIDPNSVTIESAGGSAGGSAGG [r7_45_JUSTAS] | 1.15 ± 0.034 | -0.0816 ± 0.11 | 0.719 ± 0.08
SAGGSAGGSAGGMTPEEIEALKARPLPDGSPILSIDREGNVYTITTARDPSVRTTVIPAESAGGSAGGSAGG [r7_995_JUSTAS] | -0.623 ± 0.61 | -0.853 ± 0.43 | -0.626 ± 0.54
SAGGSAGGSAGGMTPIEKEEPHHHMTFTREGDTVSLETFPGSGSIRKTLPSEEEVEKLLSAGGSAGGSAGGS [r10_1104_JUSTAS] | -0.413 ± 0.071 | 0.156 ± 0.096 | 0.00761 ± 0.11
SAGGSAGGSAGGMTTTTTAPESGDLVTIHPEKGIAVVTSPEGKVTEVPIDPDDYSVEPASAGGSAGGSAGGS [r10_568_JUSTAS] | 0.343 ± 0.076 | 1.57 ± 0.079 | 1.19 ± 0.12
SAGGSAGGSAGGMTTTTVSRSPDGTITTTTTTYVPTPDGSVVPVTTTTTTTPIDPAALSSAGGSAGGSAGGS [r10_991_JUSTAS] | 1.45 ± 0.046 | 1.39 ± 0.017 | 1.42 ± 0.036
SAGGSAGGSAGGMTVTVEISIPVTVETSFFKPNKPYFKKKTINKKITIEIPNGEPLSLLSAGGSAGGSAGGS [r10_633_JUSTAS] | 0.492 ± 0.14 | -0.0788 ± 0.2 | 0.249 ± 0.13
SAGGSAGGSAGGMTVVERTIEVEPDAKVIPLNLPGSNISATVLEYDPETGTLKVKIYVKESAGGSAGGSAGG [r17_198_JUSTAS] | 0.485 ± 0.05 | 1.06 ± 0.12 | 0.945 ± 0.11
SAGGSAGGSAGGMVELDPENGTLTVLVEVDGELYKVTIKFNPETNEIVSIEVEKLPELEESAGGSAGGSAGG [r7_343_TrROS_Hall] | 3.03 ± 0.41 | 3.85 ± 0.31 | 3.66 ± 0.42
SAGGSAGGSAGGMVIKITTESGEKIEIEVPEEDEEKVKELVKELEKAGFKVKKVEVFEPSAGGSAGGSAGGS [r10_231_TrROS_Hall] | 1.6 ± 0.11 | 1.87 ± 0.073 | 1.77 ± 0.17
SAGGSAGGSAGGMVRITVEVDGKTYELVVEGMSLEEIEELLKKPNIKKAKVEPLSEEELKSAGGSAGGSAGG [r7_502_TrROS_Hall] | 1.24 ± 0.04 | 2.71 ± 0.09 | 2.32 ± 0.098
SAGGSAGGSAGGMVVKIKVDGKTITLSAEELKKNKDLLKELEKKGYKIVSIEVFEPEEESAGGSAGGSAGGS [r10_396_TrROS_Hall] | 1.57 ± 0.056 | 1.71 ± 0.027 | 1.67 ± 0.08
SAGGSAGGSAGGMYITFDFEVPPNNPEVIEELKSKGIEYKKIEPKPDKVKVKVIIPEKLLSAGGSAGGSAGG [r7_41_JUSTAS] | -0.638 ± 0.3 | -0.12 ± 0.27 | -0.38 ± 0.27
SAGGSAGGSAGGMYVAVVTRPDGSRLVVETEPGEEIELFTEDGRPLGITAVAPVDEEAFSAGGSAGGSAGGS [r10_422_TrMRF] | 0.444 ± 0.036 | -0.334 ± 0.18 | 0.227 ± 0.09
SAGGSAGGSAGGNGKKEITIFIKVPPGMPPNEIKDELKDLGLTNIEIERHNNWVMITFRSAGGSAGGSAGGS [r10_868_TrROS] | 1.15 ± 0.06 | 1.84 ± 0.099 | 1.58 ± 0.12
SAGGSAGGSAGGNIEVLPIPDGYWVIKIPDGRIMVFNPGRGEFEPIPIENVTIEPVRPGDSAGGSAGGSAGG [r7_656_TrROS] | 0.4 ± 0.021 | 0.929 ± 0.055 | 0.783 ± 0.076
